The numbers were not newly measured in paper PMC6601554, which cites them from elsewhere.

The target in the data set is Mouse neonatal Fc receptor (FcRn) (UniProt Q61559). Description: not stated in this article.
Sequence of UniProt Q61559 (Q61559 whole entry): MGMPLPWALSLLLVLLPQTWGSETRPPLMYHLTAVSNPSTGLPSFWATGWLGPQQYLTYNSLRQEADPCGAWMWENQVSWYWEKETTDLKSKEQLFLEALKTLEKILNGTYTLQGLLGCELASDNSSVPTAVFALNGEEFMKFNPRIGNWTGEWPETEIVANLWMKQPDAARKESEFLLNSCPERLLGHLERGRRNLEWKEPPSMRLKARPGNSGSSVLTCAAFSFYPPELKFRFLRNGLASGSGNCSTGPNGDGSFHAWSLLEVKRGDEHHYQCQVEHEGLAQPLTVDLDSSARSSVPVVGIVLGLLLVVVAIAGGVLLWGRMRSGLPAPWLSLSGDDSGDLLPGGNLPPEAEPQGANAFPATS

For the substance “MST-HN human IgG1 (Abdeg; mutated humanized anti-hen egg lysozyme HuLys10) M252Y;S254T;T256E;H433K;N434F”, the Kd reads like this: (pH 6.0) 1.2 nM; (pH 7.2) 7.4 nM.
